Patent publication US20230241072A1, “ANTHRACYCLINE DERIVATIVES” (ALMAC DISCOVERY LIMITED, priority 2019, published 2023)

Assays:
[1] = Human plasma stability of protein-PNU conjugates (LC-MS of released payload); assay type: in vitro ADME; conditions: 37° C., up to 168 h, 4 or 2 uM PDC, LLOQ 0.1 or 0.156 uM
Procedure: Different conjugates were incubated at 37° C. for 168 h in human plasma at a final concentration of 4 μM or 2 μM of protein. Samples were analysed by LC-MS as a function of time up to and including 168 h and the amount of released PNU159682 and EDA-PNU159682 derivative was quantified by reference to calibration standards.

[2] = Mouse plasma stability of protein-PNU conjugates (LC-MS of released payload); assay type: in vitro ADME; conditions: 37° C., 4 μM protein
Procedure: Different P3A1-hFc-PNU conjugates were incubated at 37° C. in mouse plasma at a final concentration of 4 μM of protein. Samples were analysed by LC-MS as a function of time and the amount of released PNU159682 and EDA-PNU159682 derivative was quantified by reference to calibration standards.

MHH-ES1 = test: In vitro cell viability assay (Cell Titre Glo), VNAR drug conjugates: MHH-ES1; assay type: cell-based, human
Procedure: (§1) In Vitro Cell Viability Assays for Cancer Cells Treated with Anti ROR1 VNAR Drug Conjugates
(§2) Cells were seeded into white, clear bottom 96 well plates (Costar) and incubated at 37° C., 5% CO2 for 24 hours. On the following day, dilution series were set up for each test agent at ×10 working stocks. The dose response ×10 stock was: 10000, 5000, 1000, 500, 100, 50, 10, 5, 1, 0.5 nM etc. 10 μL of the ×10 stock solutions were added to the cell plates (90 μl per well) using a multichannel pipette. […] 100d of vehicle control (PBS) was added to the control wells (columns 11 and 12). Plates were incubated at 37′C, 5% CO2 for 72-96 hours. Promega Cell litre Glo reagent was used as per the manufacturer's instructions to assess cell viability. Briefly, assay plates were removed from incubator and allowed to equilibrate to room temperature before adding […] of room temperature Cell litre Glo reagent to each 100 μl assay well. Plates were placed on a plate shaker for 2 minutes at 600 rpm. Plates were allowed to sit for a further 10 minutes at room temperature prior to measuring luminescence read-out using a Clariostar plate-reader (BMG). Data was analysed by calculating the average for untreated (vehicle only) control wells and determining the % of control for each treated well. % of control data was then plotted against Log [Treatment] concentration and the IC50 value derived using non-linear regression fitting in GraphPad Prism software.
(§3) The following cell lines were used: • Kasumi-2—human B cell leukaemia precursor; • PA-1—human ovarian cancer cell line; • PA-1 ROR1 ko—human ovarian cancer cell line with ROR1 knock-out; • 697—human B cell leukaemia precursor, and • MHH-ES1—human Ewing's sarcoma cell line.

PA-1 ROR1 ko = test: In vitro cell viability assay (Cell Titre Glo), VNAR drug conjugates: PA-1 ROR1 ko; assay type: cell-based, human
Procedure: as §1, §2, §3

Kasumi-2 = test: In vitro cell viability assay (Cell Titre Glo), VNAR drug conjugates: Kasumi-2; assay type: cell-based, human
Procedure: as §1, §2, §3

697 = test: In vitro cell viability assay (Cell Titre Glo), VNAR drug conjugates: 697; assay type: cell-based, human
Procedure: as §1, §2, §3

PA-1 = test: In vitro cell viability assay (Cell Titre Glo), VNAR drug conjugates: PA-1; assay type: cell-based, human
Procedure: as §1, §2, §3

Cathepsin B = Cathepsin B (Homo sapiens, UniProt P07858); test: Cathepsin B treatment of protein-PNU conjugates, payload release; assay type: in vitro ADME; conditions: after treatment with Cat B
Source text: Cathepsin B treatment of VNAR-hFc-vc-PAB-EDA-PNU conjugates and the corresponding conjugates of the multimeric proteins liberated free EDA-PNU159682 derivative in a quantitative fashion. Whereas, VNAR-hFc-va-EDA-PNU conjugates and the corresponding conjugates of the multimeric proteins were completely stable to Cathepsin B treatment.
Only the vc-PAB-EDA-PNU releases payload on treatment with CatB as expected for the conditions used in this in vitro assay. The release is quantitative—as the conjugates have a drug to antibody ratio of 2, then twice the concentration of payload released versus the concentration of conjugate is expected after CatB treatment. This expectation matches the data shown in Table 11 for vc-PAB-EDA-PNU conjugates.

ROR1 = ROR1 (Homo sapiens, UniProt Q01973); conditions: VNAR domain; data in WO 2019/122447; cited from earlier work
[3] = ratio to corresponding non-binding 2V-hFc conjugate

B1: P3A1hFc-PEG4-va-EDA-PNU (conjugate)
chain: TRVDQTPRTATKETGESLTINCVLTDTSYGLYSTSWFRKNPGTTDWERMSIGGRYVESVNKGAKSFSLRIKDLTVADSATYYCKAREARHPWLRQWYDGAGTVLTVNGGGGSGGGGSGGGGS
modifications: left off: a dimerising Fc or GST
Observed EDA payload release [1]: no EDA-PNU detected at any time points
Concentration (nM) of free PNU payload detected by LC-MS, 4 h ([2]; 4 h): 3 nM
Concentration (nM) of free PNU payload detected by LC-MS, 24 h ([2]; 24 h): 4 nM
Concentration (nM) of free PNU payload detected by LC-MS, 48 h ([2]; 48 h): 1 nM
Concentration (nM) of free PNU payload detected by LC-MS, 72 h ([2]; 72 h): 2 nM
Concentration (nM) of free PNU payload detected by LC-MS, 96 h ([2]; 96 h): 5 nM
Concentration (nM) of free PNU payload detected by LC-MS, 120 h ([2]; 120 h): 3 nM
IC50 (MHH-ES1; Table 5, 96 h): 18 nM
ROR1 targeting/2V non-targeting window MHH-ES1 (MHH-ES1; [3]): 8.4
IC50 (PA-1 ROR1 ko; Table 5, 96 h, PA-1 ROR1 ko): 11.3 nM
ROR1 targeting/2V non-targeting window PA-1 31-J-06 (PA-1 ROR1 ko; ratio to corresponding non-binding 2V-hFc conjugate, PA-1 31-J-06 (ROR1 −/−; matches PA-1 ROR1 ko of Table 5)): 4
IC50 (Kasumi-2; Table 5, 96 h): 2.3 nM
ROR1 targeting/2V non-targeting window Kasumi-2 (Kasumi-2; [3]): 43
IC50 (697; Table 5, 96 h): 61 nM
ROR1 targeting/2V non-targeting window 697 697; [3]: 4
IC50 (PA-1; Table 5, 96 h): 0.15 nM
ROR1 targeting/2V non-targeting window PA-1 (PA-1; [3]): 360
EDA released, per cent of theoretical conc of payload (Cathepsin B; figure in brackets): 1.7%
Average Conc EDA Released (Cathepsin B; protein 10 uM (2VhFc conjugate 5 uM)): 0.36 µM

B2: P3A1: VNAR domain, SEQ ID NO: 43 (protein)
VHH: TRVDQTPRTATKETGESLTINCVLTDTSYGLYSTSWFRKNPGTTDWERMSIGGRYVESVNKGAKSFSLRIKDLTVADSATYYCKAREARHPWLRQWYDGAGTVLTVN
binding to ROR1 (ROR1): bind to ROR1
